Assay results as given in patent US5851983A, “Elastase inhibitory polypeptide and process for production thereof by recombinant gene technology” (Teijin Limited, priority 1987, dated 1998).

Experiments:
[1] = Partial hydrolysis with healthy human saliva (Examples 15, 16); assay type: in vitro ADME; settings: 37° C.
Experimental: Healthy human saliva was filtered through a 0.22 μm filter (Milex GS, Milipore), and in the filtrate was dissolved 1 mg/ml of the SLPI prepared in Reference Example 1. The mixture was then incubated at 37° C. for 30 days. As a control, the SLPI was dissolved in physiological saline (Physisalz; Fuso Yakuhin Kogyo), and the mixture was incubated at 37° C. for 30 days.
With an elapse of time, samples were taken and to each sample were added a Tris-HCl buffer (pH 6.8), SDS, 2-mercaptoethamel and glycerol, to final concentration of 60 mM, 2% by weight, 4% by weight and 10% by weight, respectively, and the mixture was subjected to an SDS-PAGE (U.K. Laemmli, Nature, 227, 680, 1970). The gel after electrophoresis was stained with Coomussie Brilliant Blue.
Next, polypeptides in the polyacrylamide gel thus obtained were electrically transferred to a membrane (Immobilon; Milipore) using a Milli Blot-SDE apparatus. After the transfer, the membrane was stained with 0.1% by weight of Coomassie Blue in 40% by weight methanol/1% by weight acetic acid, and washed with water. Then, after air drying, the bands b, c, d and e were excised, and for each band, the PTH-amino acids were cleaved from the N-terminus with an Applied Biosystems Protein Sequences (Applied Biosystems; 470A) and analysed with a PTH analyser (Applied Biosystems, 120A) to determine an amino acid sequence for 10 amino acids from the N-terminus.
According to the same procedure as described in Example 15, (Asn^55 -Ala^107) SLPI prepared in Example 11 was treated with healthy human saliva at 37° C., and a result is shown in FIG. 13. […] After 12 hours, a new band g (MW about 5,500) appeared.
Next, according to the same procedure as described in Example 15, the band g was electrically transferred to a membrane and N-terminal amino acid sequence was analyzed. […] The 6th amino acid could not be determined. The N-terminal amino acid sequence of the band g corresponds to an amino acid sequence starting from Arg^59 of SLPI.

[2] = target: T1, polymorphonuclear leucocyte elastase from human sputum (Homo sapiens, UniProt P08246); test: Effect of serum albumin on elastase inhibitory activity (Example 13); assay type: biochemical; settings: in the presence of 0.8% or 8% calf serum albumin
T1 construct: Polymorphonuclear leukocyte elastase from human sputum (EPC Co; Funakoshi Yakuhin); purchased EPC Co. (via Funakoshi Yakuhin); host or cells: human sputum
T1 sequence (P08246 30-267): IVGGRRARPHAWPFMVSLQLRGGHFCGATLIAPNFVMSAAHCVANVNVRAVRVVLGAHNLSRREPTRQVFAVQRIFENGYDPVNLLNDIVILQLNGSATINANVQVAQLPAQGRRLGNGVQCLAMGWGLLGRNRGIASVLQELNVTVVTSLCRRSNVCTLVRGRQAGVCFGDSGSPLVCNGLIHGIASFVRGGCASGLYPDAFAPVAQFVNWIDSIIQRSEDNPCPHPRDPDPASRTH
Experimental: The inhibitory activity of a active-form (Asn^55 -Ala^107) SLPI fragment polypeptide on polymorphonuclear leucocyte elastase from human sputum was measured by the same procedure as in Example 12 in the presence of 0.8% or 8% calf serum albumin.

Calf pancreatic trypsin = target: T2, Calf pancreatic trypsin (Bos taurus, UniProt P00760); test: Serine protease inhibitory assay, Example 12: trypsin; assay type: biochemical; settings: read-out: concentration of inhibitory protein which exhibits a 50% inhibition; enzyme 10^-7 M; Bz-Arg-pNA 1.0 mM; 37° C.
T2 construct: (2) Calf pancreatic trypsin (Sigma); purchased Sigma; host or cells: calf pancreas
T2 sequence (P00760 24-246): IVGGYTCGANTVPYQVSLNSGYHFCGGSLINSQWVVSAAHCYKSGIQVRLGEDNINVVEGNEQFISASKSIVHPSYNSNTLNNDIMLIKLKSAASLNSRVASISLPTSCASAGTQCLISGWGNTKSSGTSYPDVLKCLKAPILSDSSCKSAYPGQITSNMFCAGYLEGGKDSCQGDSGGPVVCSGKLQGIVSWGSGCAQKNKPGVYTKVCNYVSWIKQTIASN
Experimental: Assay of serine protease inhibitory activity of active-type (Asn^55 -Ala^107) SLPI fragment polypeptide
The active-type (Asn^55 -Ala^107) SLPI fragment polypeptide obtained by refolding by the procedure shown in Example 11 as measured to determine its inhibitory activity to various serine proteases. The assay result thereof is shown as follows.
Enzyme solution: The following enzymes were dissolved in the above-mentioned buffer solutions at a concentration ten-times higher than the concentration shown in Table 4.
(2) Calf pancreatic trypsin (Sigma)
Substrate solution: For the above-mentioned enzymes (1) to (7), the following substrates (1) to (7), respectively, were dissolved in dimethyl sulfoxyde to a concentration of 10 mM to prepare stock solutions, which were then dissolved in the above-mentioned buffer solution to concentration ten-times higher than final concentrations, to prepare substrate solutions. […]
(§1) To each well of a 96-well ELISA microplate were added 140 μl of the above-mentioned buffer, 20 μl of a test solution, and 20 μl of the enzyme solution, and the mixture was stirred at 37° C. for 30 minutes. Next, 20 μl of the substrate solution was added to the well, the mixture was stirred at 37° C. for one hour to develop same, and the absorbance at 405 nm was measured.
Moreover, an inhibitory constant Ki of the present (Asn^55 -Ala^107) SLPI was calculated on the basis of the above data by a method of Dixon, M. and Webb, E. C. (1979), Enzyme, Longman or a method of Henderson, P. J. F. (1972) Biochem. J., 127, 321-333.

[3] = target: T3, polymorphonuclear leukocyte elastase from human sputum (Homo sapiens, UniProt P08246); test: Serine protease inhibitory assay, Example 12: human elastase; assay type: biochemical; settings: read-out: concentration of inhibitory protein which exhibits a 50% inhibition; enzyme 10^-9 M; MeO-Suc-Ala-Ala-Pro-Val-pNA 0.3 mM; 37° C.
T3 construct: Polymorphonuclear leukocyte elastase from human sputum (EPC Co; Funakoshi Yakuhin); purchased EPC Co. (via Funakoshi Yakuhin); host or cells: human sputum
T3 sequence (P08246 30-267): T1 sequence (P08246 30-267)
Experimental: as §1

[4] = target: T1, polymorphonuclear leucocyte elastase from human sputum; test: Simultaneous treatment with healthy human saliva and elastase (Examples 28, 29); assay type: in vitro ADME; settings: 37° C.
Experimental: (1) Healthy human saliva was ultra-filtered through a 0.22 μm filter (Millex GS, Millipore), and to the filtered saliva were added SLPI and polymorphonuclear leucocyte elastase from human sputum (EPC, Funakoshi Yakuhin) to a final concentration of 50 μM respectively. The mixture was incubated at 37° C., samples were taken as time elapsed, and analyzed by SDS-PAGE as described in Example 27.
(2) Next, the band J was transferred to a membrane as described in Example 27, and N-terminal amino acid sequence was analyzed.
(1) According to the same procedure as described in Example 28, to healthy human saliva were dissolved SLPI and polymorphonuclear leucocyte elastase from human sputum to final concentrations of 50 μM and 100 μM respectively, and the mixture was incubated at 37° C. Samples were taken as time elapsed, and analyzed by SDS-PAGE.
(2) Next, N-terminal amino acid sequence of the band M was analyzed as described in Example 27.

- effect of calf serum albumin on elastase inhibitory activity [2]: had no effect on its activity
- IC50 (Calf pancreatic trypsin): 130 nM
- IC50 [3]: 1 nM
Substance: (Asn^55 -Ala^107) SLPI: polypeptide having an amino acid sequence starting with the 55th Asn and ending at the 107th Ala of SLPI (NPTRRKPGKCPVTYGQCLMLNPPNFCEMDGQCKRDLKCCMGMCGKSCVSPVKA)
- SDS-PAGE band after incubation in physiological saline without saliva ([1]; 96 hours): only the band f having an MW of about 5,800 remained
- SDS-PAGE bands after incubation in healthy human saliva ([1]; 96 hours, band f = starting polypeptide, band g MW about 5,500): only the band g remained after 96 hours of incubation
- cleavage sites in healthy human saliva ([1]; SDS-PAGE bands, N-terminal sequencing): cleaved at a site between Arg^58 -Arg^59
- SDS-PAGE bands on simultaneous treatment with healthy human saliva and elastase ([4]; 50 μM polypeptide, elastase 50 μM (Example 28) or 100 μM (Example 29)): after 48 hours, almost only band M was observed
- cleavage site on simultaneous treatment with healthy human saliva and elastase ([4]; N-terminal sequencing of SDS-PAGE band): cleaved at the site between Thr^57 -Arg^58
